Measurements as given in patent publication US20060286615A1.

Molecular target: monoclonal anti-H2a antibody of hybridoma clone B9 (ECACC 04030801)
Experiment: competitive ELISA, antibody preincubated overnight with free specific peptide, then plate-bound peptide

% inhibition of the reaction: 81%
Binder: CEKRRNATGEVA [H2 carboxyterminal peptide (SEQ ID NO:1, …)]
